The values below come from article PMC8960874 (2022).

For assay [1], the target named is T1, SARS-CoV-2 spike receptor binding domain (RBD) protein with a C-terminal hexahistidine tag (SARS-CoV-2, UniProt P0DTC2 319-541). Nature of the assay: BLI. On the technique in general: In BLI a coated tip is dipped into the sample, and binding shifts an interference pattern.
The target of assay [2] is T1, SARS-CoV-2 spike receptor binding …. Kind of assay: BLI. The source holds these as a separate data set.

B1: Clone 2 mAb (human IgG1 with mouse variable regions) (antibody, V domains shown)
VH: EVQLQQSGPELVKPGASVKISCKASGYSFTGYSMNWMKQSPEKSLEWIGEINPSTGGTTDNQKFKAKATLTVDKSSSTAYMQLKSLTSEDSAVYYCARSRGDYWGQGTSVTVSS
VL: DIVLTQSPASLAVSLGQRATISCRASESVEYYGTSLMQWYQQKPGQPPKVLIYAASNVESGVPARFSGSGSGTDFSLNIHPVEEDDIAMYFCQQSRKVPWTFGGGTKLEIK
In the case of B1, the koff (usually the first-order rate constant of dissociation) in assay [1] is 1.49e-07 s⁻¹. The Kd (usually the equilibrium constant for the complex coming apart) in assay [2] is 1.58 pM.

B2: Clone 6 mAb (human IgG1 with mouse variable regions) (antibody, V domains shown)
VH: QVQLQQSAAELARPGASVKMSCKASGYTFTSYTMHWVKQRPGQGLEWIGYINPTSGYTEYNQNFKDKTTLTADKSSSTAYMQLNSLTSEDSAVYYCAREGHRVGPAYWGQGTLVTVSA
VL: not shown
In assay [1], B2 had a koff of 3.65e-07 s⁻¹. In assay [2], this molecule registered a Kd of 1.89 pM.
